No end group written: not given here. TMR = tetramethyl rhodamine dye

What all share (test): fluorescence polarisation; 37 °C, after the 25 °C reading ramped over 7 min to 37 °C and 2 min incubation; unlabeled Rb^P against 1.5 nM TMR-E2F1^TD or 7.5 nM TMR-E7^LxCxE; 25 mM Tris pH 8.0, 200 mM NaCl, 1 mM DTT, 0.1% Tween-20; apparent Kd
Settings in all cases: both partners purified
In general terms: Fluorescence polarisation rises when a labelled molecule tumbles more slowly, as on binding a larger partner.

One test deals with T1, Rb^P S474I (human, UniProt P06400 380-788, S474I).
T1 construct: also called variant 11
T1 sequence (looked up): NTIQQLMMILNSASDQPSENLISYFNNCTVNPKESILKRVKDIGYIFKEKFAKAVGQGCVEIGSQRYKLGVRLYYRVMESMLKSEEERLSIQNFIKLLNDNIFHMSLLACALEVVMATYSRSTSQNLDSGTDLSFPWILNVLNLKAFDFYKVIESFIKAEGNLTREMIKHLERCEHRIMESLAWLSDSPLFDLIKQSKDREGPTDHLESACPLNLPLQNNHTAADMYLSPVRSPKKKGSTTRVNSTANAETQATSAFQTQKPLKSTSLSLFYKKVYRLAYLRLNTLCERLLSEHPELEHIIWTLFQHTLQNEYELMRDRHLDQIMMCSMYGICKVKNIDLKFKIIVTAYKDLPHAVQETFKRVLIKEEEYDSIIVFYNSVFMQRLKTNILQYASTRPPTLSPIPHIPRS

The target of another test is T2, Rb^P E492Q (human, UniProt P06400 380-788, E492Q).
T2 construct: also called variant 18
T2 sequence (looked up): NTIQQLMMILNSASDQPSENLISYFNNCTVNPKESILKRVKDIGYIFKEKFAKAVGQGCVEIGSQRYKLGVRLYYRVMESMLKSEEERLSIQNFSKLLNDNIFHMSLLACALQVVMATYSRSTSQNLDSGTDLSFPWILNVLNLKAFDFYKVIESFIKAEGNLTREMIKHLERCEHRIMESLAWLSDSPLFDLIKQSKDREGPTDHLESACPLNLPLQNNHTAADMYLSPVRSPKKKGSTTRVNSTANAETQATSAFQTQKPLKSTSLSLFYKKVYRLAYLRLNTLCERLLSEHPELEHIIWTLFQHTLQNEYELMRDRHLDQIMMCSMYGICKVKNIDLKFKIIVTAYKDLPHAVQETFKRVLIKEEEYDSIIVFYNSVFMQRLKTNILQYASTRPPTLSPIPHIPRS

The target in another test is T3, Rb^P E554K (human, UniProt P06400 380-788, E554K).
T3 construct: also called variant 28
T3 sequence (looked up): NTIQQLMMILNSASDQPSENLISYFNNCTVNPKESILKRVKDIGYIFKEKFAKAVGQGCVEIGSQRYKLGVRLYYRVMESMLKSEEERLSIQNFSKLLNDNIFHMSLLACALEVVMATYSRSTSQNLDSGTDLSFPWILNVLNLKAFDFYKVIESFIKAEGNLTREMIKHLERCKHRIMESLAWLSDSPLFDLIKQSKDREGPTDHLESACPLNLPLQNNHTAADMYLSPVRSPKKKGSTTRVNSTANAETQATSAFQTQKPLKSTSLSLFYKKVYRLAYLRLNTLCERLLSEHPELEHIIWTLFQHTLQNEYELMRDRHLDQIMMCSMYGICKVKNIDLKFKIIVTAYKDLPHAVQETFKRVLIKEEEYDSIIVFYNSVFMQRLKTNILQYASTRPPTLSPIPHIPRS

In another test the target is T4, Rb^P R556Q (human, UniProt P06400 380-788, R556Q).
T4 construct: also called variant 30
T4 sequence (looked up): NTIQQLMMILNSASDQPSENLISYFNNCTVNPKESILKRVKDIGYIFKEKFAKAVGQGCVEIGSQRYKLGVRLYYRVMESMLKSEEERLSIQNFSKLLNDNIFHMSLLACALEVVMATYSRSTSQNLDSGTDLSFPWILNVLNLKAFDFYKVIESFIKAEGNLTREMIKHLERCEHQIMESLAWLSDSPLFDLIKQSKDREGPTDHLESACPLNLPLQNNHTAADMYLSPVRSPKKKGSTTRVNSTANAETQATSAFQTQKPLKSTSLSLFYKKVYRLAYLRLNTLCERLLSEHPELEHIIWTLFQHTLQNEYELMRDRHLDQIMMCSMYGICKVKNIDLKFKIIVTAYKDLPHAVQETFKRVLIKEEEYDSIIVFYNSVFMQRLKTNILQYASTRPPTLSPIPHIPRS

A further test addresses T5, Rb^P H673P (human, UniProt P06400 380-788, H673P).
T5 construct: also called variant 54
T5 sequence (looked up): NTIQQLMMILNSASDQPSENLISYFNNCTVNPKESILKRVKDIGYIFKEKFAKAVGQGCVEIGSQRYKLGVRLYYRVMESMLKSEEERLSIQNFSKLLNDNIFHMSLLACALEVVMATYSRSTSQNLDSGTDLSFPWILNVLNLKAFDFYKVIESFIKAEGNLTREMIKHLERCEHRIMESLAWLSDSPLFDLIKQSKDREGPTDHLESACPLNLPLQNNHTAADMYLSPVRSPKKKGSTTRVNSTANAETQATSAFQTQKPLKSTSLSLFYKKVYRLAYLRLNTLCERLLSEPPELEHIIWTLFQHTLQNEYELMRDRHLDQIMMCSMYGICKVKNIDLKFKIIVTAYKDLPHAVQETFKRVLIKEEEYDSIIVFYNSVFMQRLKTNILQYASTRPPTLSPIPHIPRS

B1: TMR-E2F1^TD, peptide of the E2F1 transactivation domain (peptide)
peptide: {TMR}-GEGIRDLFDCDFGDLTPLD
notes: also called E2F^TD; source: synthetic peptide, bought: GenScript
As to B1, the Kd was found to be 775 nM with Rb^P S474I; 73 nM with Rb^P E492Q; 3270 nM in the test with Rb^P E554K; 48 nM with Rb^P R556Q; 98 nM with Rb^P H673P.

B2: TMR-E7^LxCxE, LxCxE peptide of the E7 oncoprotein from HPV (peptide)
peptide: DLYCYEQLN
modifications: also: TMR label, position not given here
notes: source: synthetic peptide, bought: GenScript
For B2, the Kd in the test with Rb^P S474I stood at 18 nM; in the test with Rb^P E492Q, 52 nM; with Rb^P E554K, 48 nM; with Rb^P R556Q, 13 nM; with Rb^P H673P, 83 nM.

The values above are taken from publication PMC11931385, “Structural and functional analysis of cancer-associated missense variants in the retinoblastoma protein pocket domain” (The Journal of Biological Chemistry, 2025).
